Test results from IntAct's records for PubMed 19162005.

B1: Regulator of cell cycle RGCC (Homo sapiens), Q9H4X1-2 (parent)
chain: MKPPAEDLSDALCEFDAVLADFASPFHERHFHYEEHLERMKRRSSASVSDSSGFSDSESADSLYRNSFSFSDEKLNSPTDSTPALLSATVTPQKAKLGDTKELEAFIADLDKTLASM

Variants of: B1
Conditions: with akt1_human AKT1, P31749
Sequence of akt1_human AKT1, P31749 (P31749 whole entry): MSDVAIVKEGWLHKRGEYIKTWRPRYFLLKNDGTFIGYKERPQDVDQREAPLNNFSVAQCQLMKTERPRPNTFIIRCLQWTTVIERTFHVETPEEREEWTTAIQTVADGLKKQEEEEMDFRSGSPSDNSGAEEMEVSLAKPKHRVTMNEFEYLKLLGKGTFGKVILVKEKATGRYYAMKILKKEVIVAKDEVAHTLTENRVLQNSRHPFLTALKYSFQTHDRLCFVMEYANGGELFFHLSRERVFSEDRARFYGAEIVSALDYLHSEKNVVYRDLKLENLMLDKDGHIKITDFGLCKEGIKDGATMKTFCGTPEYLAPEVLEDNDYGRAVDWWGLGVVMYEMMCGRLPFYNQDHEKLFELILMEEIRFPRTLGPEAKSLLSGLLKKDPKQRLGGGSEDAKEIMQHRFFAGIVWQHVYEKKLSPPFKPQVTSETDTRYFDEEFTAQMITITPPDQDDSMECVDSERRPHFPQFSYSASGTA

Row | effect of a mutation on the interaction | Variant
1 | disrupting interaction | MKPPAEDLSDALCEFDAVLADFASPFHERHFHYEEHLERMKRRSAAAVSDSSGFSDSESADSLYRNSFSFSDEKLNSPTDSTPALLSATVTPQKAKLGDTKELEAFIADLDKTLASM [S45A;S47A]
